Holding throughout (assay): […]; 10 mM Tris pH 7.4, 150 mM NaCl, 1 mM EDTA
Experiment [1] has as its target PfC domain of EPclA (residues 363-426) after removal of thioredoxin by thrombin.
Experiment [2] has as its target Trx–PfC, PfC domain of EPclA (residues 363-426) fused to thioredoxin.
Experiment [3] addresses Col–PfC fragment, endogenous proteolytic fragment of rEPclA with only the Col and PfC domains (Escherichia coli O157:H7 strain RIMD 0509952 (Sakai)).
For experiment [4], the target named is PfN–PCoil fragment of EPclA (residues 1-250).

In general, stoichiometry N refers to a count of units in the complex or per binding partner.

“PfC domain of EPclA (residues 363-426) after removal of thioredoxin by thrombin (domain or fragment)” came in with a stoichiometry N in experiment [1] of 3.
In turn, “Trx–PfC, PfC domain of EPclA (residues 363-426) fused to thioredoxin (domain or fragment)” yielded a stoichiometry N in experiment [2] of 3.
In the case of “Col–PfC fragment, endogenous proteolytic fragment of rEPclA with only the Col and PfC domains (domain or fragment)”, the stoichiometry N in experiment [3] was found to be 3.
In turn, “PfN–PCoil fragment of EPclA (residues 1-250) (domain or fragment)” yielded a stoichiometry N in experiment [4] of 3.

These data come from PMC3368898.
